# T1: human CD48 (on primary human peripheral blood mononuclear cells) (human, UniProt P09326 27-220)
# T1 sequence: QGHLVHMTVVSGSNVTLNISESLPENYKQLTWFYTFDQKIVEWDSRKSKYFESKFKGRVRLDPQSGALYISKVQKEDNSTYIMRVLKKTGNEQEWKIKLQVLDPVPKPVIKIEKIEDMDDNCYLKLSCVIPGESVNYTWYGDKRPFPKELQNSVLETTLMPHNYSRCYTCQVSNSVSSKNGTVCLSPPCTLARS
# T2: biotinylated dimeric human CD48 protein expressed as a fusion with mouse IgG2a Fc (human, biotinylated)
# T2 construct: also called bio-hCD48-mFc; Dimeric human CD48-mFc
# T2 chain: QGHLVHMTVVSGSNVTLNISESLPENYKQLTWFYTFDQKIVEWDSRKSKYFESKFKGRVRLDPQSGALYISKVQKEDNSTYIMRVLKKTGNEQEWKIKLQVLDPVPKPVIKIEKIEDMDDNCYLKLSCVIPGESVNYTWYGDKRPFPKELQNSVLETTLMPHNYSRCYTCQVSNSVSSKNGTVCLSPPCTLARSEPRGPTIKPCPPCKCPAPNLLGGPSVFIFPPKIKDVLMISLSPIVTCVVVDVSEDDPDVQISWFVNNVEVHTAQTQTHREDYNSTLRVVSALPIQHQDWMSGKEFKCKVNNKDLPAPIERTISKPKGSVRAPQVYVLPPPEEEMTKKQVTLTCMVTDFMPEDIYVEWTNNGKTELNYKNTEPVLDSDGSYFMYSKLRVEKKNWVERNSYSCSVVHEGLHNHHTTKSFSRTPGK
# T3: monomeric monkey CD48 expressed with a tag consisting of 2 myc and one 6-His epitopes (monkey)
# T3 construct: also called mfCD48-mmH; Monomeric monkey CD48-mmH
# T3 chain: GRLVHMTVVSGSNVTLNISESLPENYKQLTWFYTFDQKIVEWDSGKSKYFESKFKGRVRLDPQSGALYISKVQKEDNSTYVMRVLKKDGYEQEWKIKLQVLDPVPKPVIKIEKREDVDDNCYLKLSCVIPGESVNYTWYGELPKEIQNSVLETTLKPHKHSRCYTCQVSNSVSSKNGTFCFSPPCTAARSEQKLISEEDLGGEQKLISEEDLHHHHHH
# T4: Monomeric monkey CD48-mmH (monkey)
# T4 construct: Soluble monkey CD48 with a myc-myc-hexa-histidine C-terminal tag; the whole entry is the construct; also called mfCD48-mmH
# T4 chain: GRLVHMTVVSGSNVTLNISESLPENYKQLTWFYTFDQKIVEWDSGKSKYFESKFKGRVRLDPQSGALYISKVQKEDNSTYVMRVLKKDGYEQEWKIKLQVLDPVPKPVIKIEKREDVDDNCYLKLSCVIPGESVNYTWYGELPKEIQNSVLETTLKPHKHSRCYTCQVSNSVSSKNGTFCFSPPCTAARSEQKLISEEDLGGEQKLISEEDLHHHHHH
# T5: Dimeric monkey CD48-mFc (monkey)
# T5 construct: Soluble monkey CD48 with a C-terminal Fc fusion [mFc]; the whole entry is the construct
# T5 chain: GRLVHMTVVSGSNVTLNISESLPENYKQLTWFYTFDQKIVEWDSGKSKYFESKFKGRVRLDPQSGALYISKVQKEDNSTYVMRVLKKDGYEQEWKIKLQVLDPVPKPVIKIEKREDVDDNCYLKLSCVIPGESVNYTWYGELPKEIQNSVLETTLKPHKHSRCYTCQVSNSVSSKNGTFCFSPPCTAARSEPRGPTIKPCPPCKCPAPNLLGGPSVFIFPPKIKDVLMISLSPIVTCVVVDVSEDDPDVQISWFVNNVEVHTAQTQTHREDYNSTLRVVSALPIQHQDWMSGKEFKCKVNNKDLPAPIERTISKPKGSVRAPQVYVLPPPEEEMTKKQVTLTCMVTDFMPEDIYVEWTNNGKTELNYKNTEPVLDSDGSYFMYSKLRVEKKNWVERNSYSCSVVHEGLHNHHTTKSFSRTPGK
# T6: Monomeric human CD48-mmH (human)
# T6 chain: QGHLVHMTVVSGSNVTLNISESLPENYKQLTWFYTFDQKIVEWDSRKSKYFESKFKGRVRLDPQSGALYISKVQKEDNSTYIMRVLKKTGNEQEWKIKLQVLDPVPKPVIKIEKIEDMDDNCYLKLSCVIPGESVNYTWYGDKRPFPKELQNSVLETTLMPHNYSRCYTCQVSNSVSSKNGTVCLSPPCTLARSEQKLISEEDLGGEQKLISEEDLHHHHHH
# T7: Dimeric human CD48-mFc (human)
# T7 construct: the whole entry is the construct; also called hCD48-mFc
# T7 chain: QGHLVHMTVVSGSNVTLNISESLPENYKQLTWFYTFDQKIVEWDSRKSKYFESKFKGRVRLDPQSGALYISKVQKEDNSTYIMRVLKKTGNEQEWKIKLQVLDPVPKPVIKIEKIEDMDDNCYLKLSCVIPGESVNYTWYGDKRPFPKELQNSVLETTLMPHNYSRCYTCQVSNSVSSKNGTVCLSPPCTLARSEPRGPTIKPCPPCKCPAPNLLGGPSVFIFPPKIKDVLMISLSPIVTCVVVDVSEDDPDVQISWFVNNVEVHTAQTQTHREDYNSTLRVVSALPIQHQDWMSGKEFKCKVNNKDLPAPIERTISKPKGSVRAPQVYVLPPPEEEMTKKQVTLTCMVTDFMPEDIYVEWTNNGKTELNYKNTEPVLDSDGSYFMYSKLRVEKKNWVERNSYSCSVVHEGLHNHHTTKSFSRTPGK
# Tests used:
# [1] = target: T1, human CD48 (on primary human peripheral …); assay: cell-based or functional assay
# [2] = target: T1, human CD48 (on primary human peripheral …); assay: cell-based or functional assay; remark: listed apart in the source
# [3] = target: T2, biotinylated dimeric human CD48 protein …; assay: competition ELISA; blocks bio-hCD48-mFc binding to coated h2B4-mFc
# Method: (§1) The ability of human anti-CD48 monoclonal antibodies to block human CD48 and monkey CD48 binding to the human cognate ligand, human 2B4, was measured using a competition sandwich ELISA (Table 8). Constant amounts of biotinylated dimeric human CD48 protein expressed as a fusion with mouse IgG2a Fc (“bio-hCD48-mFc” [SEQ ID NO: 387]) or monomeric monkey CD48 expressed with a tag consisting of 2 myc and one 6-His epitopes (“mfCD48-mmH” [SEQ ID NO: 386]) were separately titrated with varying amounts of antibodies. These antibody-protein complexes were incubated (1 hr, 25° C.) before being transferred to microtiter plates coated with a dimeric construct expressing the human 2B4 receptor fused to a either human IgG1 (h2B4-hFc [R&D Systems, Inc., Minneapolis, Minn., Cat. No. 1039-2B]) or mouse IgG2a Fc (h2B4-mFc [SEQ ID NO: 389). After a 1 hr at 25° C. the wells were washed and bound human CD48 was detected with streptavidin conjugated with horse-radish peroxidase (HRP), and monkey CD48 was detected with an HRP conjugated anti-myc polyclonal antibody. The ELISA was developed with a TMB solution to produce a colorimetric reaction and quenched with sulfuric acid before reading absorbance at 450 nm on a Victor X5 plate reader. Sigmoidal dose response curves were fit to the data using Prism™ software. […] (Tables 8 and 9, NB=no binding observed)
# [4] = target: T3, monomeric monkey CD48 expressed with a …; assay: competition ELISA; blocks mfCD48-mmH binding to coated h2B4-mFc
# Method: as §1
# [5] = target: T4, Monomeric monkey CD48-mmH; assay: SPR (Biacore), antibody captured by anti-Fc, CD48 in solution, 25 C
# Method: (§2) Measurements were conducted on a T100-2 BIACORE™ instrument (Biacore Life Sciences division of GE Healthcare, Piscataway, N.J.). Antibodies (either with mouse Fc [designated “H2M” or “H3M”] or human IgG4 Fc [designated “H4H”]) were captured through an anti-Fc chip surface, and CD48 was flowed over the surface either in a monomeric (soluble CD48 expressed with a myc-myc-hexa-histidine C-terminal tag [mmH]) or dimeric (soluble CD48 expressed with a C-terminal Fc fusion [mFc]) format.
# (§3) The soluble CD48 was applied to the flow cell in separate injections at different concentrations, and kinetic association (kₐ) and dissociation (kd) rate constants were determined by fits to the kinetic binding data using Biacore software. Binding dissociation equilibrium constants and dissociation half-times were calculated from the kinetic rate constants as: KD=kd/kₐ; t_{1/2}=(ln 2/kd) (units: ka=M⁻¹*s⁻¹; kd=s⁻¹; KD=M; T½=min) (Tables 3-6).
# [6] = target: T5, Dimeric monkey CD48-mFc; assay: as above
# Method: as §2, §3
# [7] = target: T6, Monomeric human CD48-mmH; assay: SPR (Biacore), antibody captured by anti-Fc, CD48 in solution, 37 C
# In short: (§4)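 Antibodies (mouse or human IgG4 Fc) captured on anti-Fc surface; soluble CD48, monomeric (myc-myc-His tag) or dimeric (Fc fusion), injected at several concentrations. ka and kd from kinetic fits; KD=kd/ka, t½=ln2/kd.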
# [8] = target: T7, Dimeric human CD48-mFc; assay: as above
# In short: as §4
# [9] = target: T4, Monomeric monkey CD48-mmH; assay: as above
# In short: as §4
# [10] = target: T5, Dimeric monkey CD48-mFc; assay: as above
# In short: as §4
binder,measurement,setting,value
"H4H1769Pa (antibody, human IgG4, V domains shown) VH: QVQLVQSGAEVKKPGASVKVSCKTSGYTFAGYGITWVRQAPGRGLEWMGWVSAYNGDTDYAQSLQGRVTMTTDTSTSTAYMELRSLRSDDTAMYYCARDRYSSSSGYFDYWGQGTLVTVSS VL: DIQMTQSPSSVSASVGDRVTITCRASQGISSWLAWHQQKPGKAPKVLIYAASSLHSGVPSRFSGSGSGTEFTLTISSLQPEDFATYYCQQANTFPYTFGQGTKLEIK",Inhibition of IFN-gamma Release IC50; Donor 9,[1],5.7e-12 Molar
same,Inhibition of IFN-gamma Release IC50; Donor 11,[1],1.9e-11 Molar
same,"% Blockade of IFNγ release, MLR; D2",[2],60%
same,"% Blockade of IFNγ release, MLR; D3",[2],39%
same,"% Blockade of IFNγ release, MLR; D5",[2],43%
same,"% Blockade of IFNγ release, MLR; D6",[2],60%
same,"% Blockade of IFNγ release, MLR; D7",[2],51%
same,"% Blockade of IFNγ release, MLR; D8",[2],40%
"H4H1771P (antibody, human IgG4, V domains shown, Human IgG4 Fc (H4H)) VH: QVQLVQSGTEVKKPGASVKVSCKVSGYTLIDLSIHWVRQAPGEGLEWMGGFDPEESETIYAQKFQGRVTMTEDTSTDTAYMELSSLRSEDTAVYYCVTEPIFGILIHESWGQGTLVTVSS VL: DIVMTQTPLSSPVTLGQPASISCRSSHSPVHSNGHTYLSWLQQRPGQPPRILIYKISRRFSGVPDRFSGSGAGTDFTLKISRVETEDVGIYYCMQASQFPWTFGQGTKVEIK",Inhibition of IFN-gamma Release IC50; Donor 11,[1],1.5e-11 Molar
same,IC50,[3],0.0099 nM
same,IC50,[4],0.0022 nM
same,"% Blockade of IFNγ release, MLR; D1",[2],78%
same,"% Blockade of IFNγ release, MLR; D2",[2],79%
same,"% Blockade of IFNγ release, MLR; D3",[2],88%
same,"% Blockade of IFNγ release, MLR; D5",[2],47%
same,"% Blockade of IFNγ release, MLR; D6",[2],50%
same,"% Blockade of IFNγ release, MLR; D7",[2],36%
same,"% Blockade of IFNγ release, MLR; D9",[2],32%
"H4H1781P (antibody, human IgG4, V domains shown, Human IgG4 Fc (H4H)) VH: QVQLVESGGGVVQPGRSLRLSCAASGFTFSNYGMHWVRQAPGKGLEWVAVIWYDDSNKNYADSVKGRFTISRDNSKNTLYLQMNSLRVEDTAVYYCARDRWTYSHFFEYWGQGTLVTVSS VL: DIQMTQSPSSVSASVGDRVTITCRASQGISSWLAWYQQKPGKAPNLLIYAASSLQSGVPSRFGGSGSGTDFSLTISGLQPEDFATYYCQQANSFPRTFGQGTKVEIK",Kd,[5],0.262 nM
same,T½,[5],2.47 h
same,koff,[5],7.8e-05 s⁻¹
same,kon,[5],298000 M⁻¹ s⁻¹
same,Kd,[6],0.0356 nM
same,T½,[6],9.03 h
same,koff,[6],2.13e-05 s⁻¹
same,kon,[6],599000 M⁻¹ s⁻¹
same,Kd,[7],0.448 nM
same,T½,[7],1.9 h
same,koff,[7],0.000101 s⁻¹
same,kon,[7],226000 M⁻¹ s⁻¹
same,Kd,[8],0.0603 nM
same,T½,[8],3.93 h
same,koff,[8],4.89e-05 s⁻¹
same,kon,[8],812000 M⁻¹ s⁻¹
same,Kd,[9],0.875 nM
same,T½,[9],0.633 h
same,koff,[9],0.000307 s⁻¹
same,kon,[9],350000 M⁻¹ s⁻¹
same,Kd,[10],0.0755 nM
same,T½,[10],2.92 h
same,koff,[10],6.61e-05 s⁻¹
same,kon,[10],875000 M⁻¹ s⁻¹
